Test results from patent publication US20180002415A1 (Chugai, published 2018).

Legend:
[1] = target: recombinant MG1-MG2 domain of human C5 β-chain (human, UniProt P01031 20-225); assay: SPR (BIACORE T200, 37 C, pH7.4): antibody captured by ProA/G, MG1-MG2 domain injected (20 and 40 nM per paragraph 378; concentration of the curves not printed on the sheet)
Experimental: ProA/G (Pierce) was immobilized onto a CM4 sensorchip using amine coupling kit (GE Healthcare) according to the recommended settings by GE Healthcare. Antibodies and analytes were diluted into the respective running buffers, ACES pH7.4 and pH5.8 (20 mM ACES, 150 mM NaCl, 1.2 mM CaCl₂, 0.05% Tween 20, 0.005% NaN₃). […] The surface was regenerated using 25 mM NaOH. Kinetic parameters at both pH conditions were determined by fitting the sensorgrams with 1:1 binding model using BIACORE® T200 Evaluation software, version 2.0 (GE Healthcare).
The MG1-MG2 domain was injected at concentrations of 20 nM and 40 nM.

[2] = target: T1, recombinant cynomolgus monkey C5 (cynomolgus monkey, UniProt P01031 20-1676 (human entry), limits assumed); assay: SPR (Biacore), 37C, pH 7.4, Ab captured on ProA/G
T1 construct: also called cynoC5
T1 chain: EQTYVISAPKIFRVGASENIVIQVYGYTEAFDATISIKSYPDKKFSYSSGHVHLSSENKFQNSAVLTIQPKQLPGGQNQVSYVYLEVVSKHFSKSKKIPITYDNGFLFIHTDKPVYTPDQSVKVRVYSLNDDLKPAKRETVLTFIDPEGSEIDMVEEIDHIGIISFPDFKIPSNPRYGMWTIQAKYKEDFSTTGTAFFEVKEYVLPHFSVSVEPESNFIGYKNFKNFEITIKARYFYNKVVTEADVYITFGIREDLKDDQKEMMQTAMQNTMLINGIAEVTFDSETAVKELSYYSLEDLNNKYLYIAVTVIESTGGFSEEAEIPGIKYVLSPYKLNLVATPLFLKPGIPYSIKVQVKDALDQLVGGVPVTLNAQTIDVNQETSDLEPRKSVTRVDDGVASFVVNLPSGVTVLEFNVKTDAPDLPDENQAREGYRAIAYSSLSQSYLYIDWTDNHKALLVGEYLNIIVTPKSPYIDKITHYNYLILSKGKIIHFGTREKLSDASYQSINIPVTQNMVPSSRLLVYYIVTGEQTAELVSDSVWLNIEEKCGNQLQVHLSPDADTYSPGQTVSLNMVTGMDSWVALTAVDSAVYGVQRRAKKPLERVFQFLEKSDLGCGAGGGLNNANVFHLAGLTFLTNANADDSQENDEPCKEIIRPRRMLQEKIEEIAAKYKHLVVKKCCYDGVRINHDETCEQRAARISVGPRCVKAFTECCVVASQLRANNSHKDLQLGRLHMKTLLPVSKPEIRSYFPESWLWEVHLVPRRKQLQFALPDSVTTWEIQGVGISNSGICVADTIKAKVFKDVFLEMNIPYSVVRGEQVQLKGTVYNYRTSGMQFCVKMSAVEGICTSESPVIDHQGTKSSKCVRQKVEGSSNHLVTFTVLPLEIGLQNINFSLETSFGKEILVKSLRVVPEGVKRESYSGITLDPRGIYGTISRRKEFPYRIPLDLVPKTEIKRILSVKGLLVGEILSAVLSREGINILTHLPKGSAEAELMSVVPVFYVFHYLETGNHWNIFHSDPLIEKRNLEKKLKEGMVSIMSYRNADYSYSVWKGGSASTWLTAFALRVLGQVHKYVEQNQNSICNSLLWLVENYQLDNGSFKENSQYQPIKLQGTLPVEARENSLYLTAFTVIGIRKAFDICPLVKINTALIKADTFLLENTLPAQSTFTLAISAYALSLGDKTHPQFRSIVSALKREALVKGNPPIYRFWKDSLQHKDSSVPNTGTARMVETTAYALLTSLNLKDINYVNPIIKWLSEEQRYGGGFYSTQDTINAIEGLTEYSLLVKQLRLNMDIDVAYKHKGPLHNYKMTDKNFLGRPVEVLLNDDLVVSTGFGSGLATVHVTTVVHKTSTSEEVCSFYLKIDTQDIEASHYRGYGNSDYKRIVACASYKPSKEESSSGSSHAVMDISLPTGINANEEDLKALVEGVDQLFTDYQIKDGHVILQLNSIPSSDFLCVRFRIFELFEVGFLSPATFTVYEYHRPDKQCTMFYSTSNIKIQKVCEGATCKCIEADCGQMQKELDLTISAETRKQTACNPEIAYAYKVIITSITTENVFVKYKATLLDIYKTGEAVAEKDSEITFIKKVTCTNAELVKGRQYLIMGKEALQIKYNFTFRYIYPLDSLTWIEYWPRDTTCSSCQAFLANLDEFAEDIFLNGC
Experimental: To observe the cross-reactivity of anti-C5 antibodies against human C5 (hC5) and cynomolgus monkey C5 (cynoC5), BIACORE® kinetics analysis was performed.

[3] = target: T2, 321-500; assay: summary drawing of the binding reactions to C5 beta-chain fragments
T2 construct: Expressed in E. coli
T2 GST fusion polypeptide: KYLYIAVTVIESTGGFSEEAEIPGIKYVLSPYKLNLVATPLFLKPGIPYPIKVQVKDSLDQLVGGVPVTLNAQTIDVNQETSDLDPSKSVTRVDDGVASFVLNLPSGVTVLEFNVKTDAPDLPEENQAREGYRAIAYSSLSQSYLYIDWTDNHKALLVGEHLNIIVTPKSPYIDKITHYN

[4] = target: T3, 481-660; assay: as above
T3 construct: Expressed in E. coli
T3 GST fusion polypeptide: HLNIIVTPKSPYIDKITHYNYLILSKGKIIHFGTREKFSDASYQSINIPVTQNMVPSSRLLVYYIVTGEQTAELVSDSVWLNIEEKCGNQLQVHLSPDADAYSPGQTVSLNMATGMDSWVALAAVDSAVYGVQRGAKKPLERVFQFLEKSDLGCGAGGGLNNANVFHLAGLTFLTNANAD

[5] = target: T4, C5 peptide 33-108 fused to GST-tag (human, UniProt P01031 33-108); assay: as above
T4 construct: not shown: GST-tag (glutathione S-transferase); vector and linker not restated

[6] = target: T5, C5 peptide 45-111 fused to GST-tag (human, UniProt P01031 45-111); assay: as above
T5 construct: not shown: GST-tag (glutathione S-transferase); vector and linker not restated

[7] = target: T6, C5 peptide 45-124 fused to GST-tag (human, UniProt P01031 45-124); assay: as above
T6 construct: not shown: GST-tag (glutathione S-transferase); vector and linker not restated

[8] = target: T7, C5 peptide 52-124 fused to GST-tag (human, UniProt P01031 52-124); assay: as above
T7 construct: not shown: GST-tag (glutathione S-transferase); vector and linker not restated

[9] = target: T8, C5 peptide 33-111 fused to GST-tag (human, UniProt P01031 33-111); assay: as above
T8 construct: not shown: GST-tag (glutathione S-transferase); vector and linker not restated

[10] = target: T9, 161-340; assay: Western blot of E. coli lysates expressing GST-fused C5 beta-chain fragments
T9 construct: Expressed in E. coli
Experimental: (§1) Anti-C5 monoclonal antibodies (MAbs) were tested for binding to C5 β-chain-derived peptides in Western blot analysis. […] The E. coli samples were harvested after incubation with 1 mM Isopropyl β-D-1-thiogalactopyranoside (IPTG) for 5 hours at 37° C., and centrifuged at 20000×g for 1 min to obtain pellets.
T9 GST fusion polypeptide: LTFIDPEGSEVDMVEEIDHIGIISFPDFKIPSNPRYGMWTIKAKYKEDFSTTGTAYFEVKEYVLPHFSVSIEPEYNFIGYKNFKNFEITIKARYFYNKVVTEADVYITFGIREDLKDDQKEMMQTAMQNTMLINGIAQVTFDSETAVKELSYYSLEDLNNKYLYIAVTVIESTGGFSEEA

[11] = target: T2, 321-500; assay: as above
Experimental: as §1

[12] = target: T10, recombinant human C5 (human, UniProt P01031 20-1676); assay: SPR (Biacore), 37C, association at pH 7.4, dissociation at pH 5.8
T10 construct: Also used for the C5 of normal human serum in the functional rows; also called hC5; rhC5
Experimental: (§2) The kinetic parameters of anti-C5 antibodies against recombinant human C5 were assessed at 37° C. using BIACORE® T200 instrument (GE Healthcare) at three different conditions; (1) both association and dissociation were at pH7.4, (2) both association and dissociation were at pH5.8, and (3) association was at pH7.4 but dissociation was at pH5.8. ProA/G (Pierce) was immobilized onto a CM1 sensorchip using amine coupling kit (GE Healthcare) according to the recommended settings by GE Healthcare. Antibodies and analytes for condition (1) and (3) were diluted in ACES pH7.4 buffer (20 mM ACES, 150 mM NaCl, 1.2 mM CaCl₂, 0.05% Tween 20, 0.005% NaN₃) and for condition (2) they were diluted in ACES pH5.8 buffer (20 mM ACES, 150 mM NaCl, 1.2 mM CaCl₂, 0.05% Tween 20, 0.005% NaN₃). […] The surface was regenerated using 25 mM NaOH. Kinetic parameters at condition (1) and (2) were determined by fitting the sensorgrams with a 1:1 binding model and the dissociation rate at condition (3) was determined by fitting the sensorgrams with a 1:1 dissociation for MCK model using BIACORE® T200 Evaluation software, version 2.0 (GE Healthcare). pH dependency of all antibodies were shown as ratio of dissociation rate of condition (2) and (1).

[13] = target: T10, recombinant human C5; assay: SPR (Biacore), ratio of dissociation rates of conditions (2) and (1)
Experimental: as §2

[14] = target: T10, recombinant human C5; assay: SPR (Biacore), 37C, association and dissociation at pH 5.8, Ab on ProA/G
Experimental: as §2

[15] = target: T10, recombinant human C5; assay: SPR (Biacore), 37C, association and dissociation at pH 7.4, Ab on ProA/G
Experimental: as §2

T4 sequence (P01031 33-108): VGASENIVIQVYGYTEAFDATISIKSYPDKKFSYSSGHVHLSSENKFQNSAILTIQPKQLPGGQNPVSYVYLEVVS
T5 sequence (P01031 45-111): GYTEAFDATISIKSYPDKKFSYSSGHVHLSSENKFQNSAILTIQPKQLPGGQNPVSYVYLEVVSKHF
T6 sequence (P01031 45-124): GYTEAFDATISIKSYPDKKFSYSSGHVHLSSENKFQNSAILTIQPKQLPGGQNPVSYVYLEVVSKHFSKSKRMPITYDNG
T7 sequence (P01031 52-124): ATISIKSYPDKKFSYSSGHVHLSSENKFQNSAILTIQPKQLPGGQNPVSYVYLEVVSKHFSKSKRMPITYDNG
T8 sequence (P01031 33-111): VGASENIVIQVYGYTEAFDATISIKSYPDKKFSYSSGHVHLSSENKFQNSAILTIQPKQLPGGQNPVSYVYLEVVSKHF

Row | Binder | binding result [1] | Kd [2] | binding result [3] | binding result [4] | binding result [5] | binding result [6] | binding result [7] | binding result [8] | binding result [9] | binding result [10] | binding result [11] | koff [12] | pH dependency (kd pH 5.8 / kd pH 7.4) [13] | koff [14] | kon [14] | koff [15] | kon [15]
1 | eculizumab-F760G4 (antibody, human IgG4 S228P, kappa, EcuH VH fused to modified human IgG4 CH F760G4; EcuL VL fused to k0 light chain constant region) heavy: not shown light: DIQMTQSPSSLSASVGDRVTITCGASENIYGALNWYQQKPGKAPKLLIYGATNLADGVPSRFSGSGSGTDFTLTISSLQPEDFATYYCQNVLNTPLTFGQGTKVEIKRTVAAPSVFIFPPSDEQLKSGTASVVCLLNNFYPREAKVQWKVDNALQSGNSQESVTEQDSKDSTYSLSSTLTLSKADYEKHKVYACEVTHQGLSSPVTKSFNRGEC | no binding (tested: 40 nM (not printed on the sheet)) |  |  |  |  |  |  |  |  |  |  |  |  |  |  |  | 
2 | CFA0307 (antibody, V domains shown, Chimeric, rabbit V regions; also called CFA0307-F760G4) VH: QSLEESGGGLVKPGASLTLTCKASGIDFSNFYYICWVRQAPGKGLDLIACIYTVSGYTYYASWAKGRLTISKTSSTTVTLQMTSLTAADTATYFCARDLHAGITNLWGPGTLVTVSS VL: AIEMTQTPFSVSAAVGGTVTIKCQASQNIYSNLAWYQQKPGQRPKLLIYGASNLESGVPSRFKGSGSGTEYTLTISDLECADAATYYCLQGYSYSNVDDAFGGGTEVVVK |  | 7.68 nM | no binding | no binding | no binding | no binding | no binding | no binding | no binding | no binding |  |  |  |  |  |  | 
3 | CFA0675 (antibody, V domains shown, Chimeric, rabbit V regions; also called CFA0675-F760G4) VH: QSVEESGGRLVTPGTPLTLTCTVSGFSLSTYAMGWVRQAPGKGLEWIGTIDTGDNSFYANWAKGRFTISRTSTTVDLKITSPTAEDTATYFCARNDGSVYNLFNLWGPGTLVTVSS VL: DVVMTQTPASVSAAVGGTVTIKCQASENIYSALSWYQQKPGLRPRLLIYYASTLASGVPSRFKGSRSGTEFTLTISDLECADAASYYCQQYYDINSVDNTFGGGTKVVVE |  | 1.29 nM |  | no binding | no binding | no binding | no binding | no binding | no binding | no binding | no binding |  |  |  |  |  | 
4 | 305LO20-SG422 (antibody, human IgG4, Modified human IgG4 CH SG422, human CL SK1) heavy: QVQLVESGGGLVQPGGSLRLSCAASGFTVHSSYYMAWVRQAPGKGLEWVGAIFTGSGAEYKAEWAKGRVTISKDTSKNQVVLTMTNMDPVDTATYYCASDAGYDYPTHAMHYWGQGTLVTVSSASTKGPSVFPLAPCSRSTSGGTAALGCLVKDYFPEPVTVSWNSGALTSGVHTFPAVLQSSGLYSLSSVVTVPSSSLGTKTYTCNVDHKPSNTKVDKRVESKYGPPCPPCPAPEFRRGPKVFLFPPKPKDTLMISRTPEVTCVVVDVSHEDPEVKFNWYVDGVEVHNAKTKPREEQYNSTYRVVSVLTVLHQDWLNGKEYKCKVSNKGLPSSIEKTISKAKGQPREPQVYTLPPSREEMTKNQVSLTCLVKGFYPSDIAVEWESNGQPENNYKTTPPVLDSDGSFFLYSKLTVDKSRWQQGNVFSCSVLHEALHAHYTRKELSLSP light: DIQMTQSPSSLSASVGDRVTITCRASQGISSSLAWYQQKPGQAPRLLIYGASETESGVPSRFSGSGSGTDFTLTISSLQPEDFATYYCQNTKVGSSYGNTFGGGTKVEIKRTVAAPSVFIFPPSDEQLKSGTASVVCLLNNFYPREAKVQWKVDNALQSGNSQESVTEQDSKDSTYSLSSTLTLSKADYEKHKVYACEVTHQGLSSPVTKSFNRGEC |  |  |  |  |  |  |  |  |  |  |  | 0.0155 s⁻¹ | 17.3 fold | 0.00815 s⁻¹ | 136000 M⁻¹ s⁻¹ | 0.00047 s⁻¹ | 1.35e+06 M⁻¹ s⁻¹
5 | 305LO23-SG115 (antibody, human IgG1, V domains shown, Modified human IgG1 CH SG115, human CL SK1) VH: QVQLVESGGGLVQPGGSLRLSCAASGFTVHSSYYMAWVRQAPGKGLEWVSGIFTGSGATYKAEWAKGRVTISKDTSKNQVVLTMTNMDPVDTATYYCASDAGYDYPTHAMHYWGQGTLVTVSS VL: DIQMTQSPSSLSASVGDRVTITCRASQGISSSLAWYQQKPGQAPRLLIYGASTTQSGVPSRFSGSGSGTDFTLTISSLQPEDFATYYCQNTKVGSSYGNTFGGGTKVEIKR |  |  |  |  |  |  |  |  |  |  |  | 0.0173 s⁻¹ | 20.2 fold | 0.00855 s⁻¹ | 133000 M⁻¹ s⁻¹ | 0.000423 s⁻¹ | 1.53e+06 M⁻¹ s⁻¹
